Reference: US20150291681A1 (published 2015)

B1: tomato-tagged Ser (Sertom), wild type Drosophila Serrate (ligand)
chain: GNFELEILEISNTNSHLLNGYCCGMPAELRATKTIGCSPCTTAFRLCLKEYQTTEQGASISTGCSFGNATTKILGGSSFVLSDPGVGAIVLPFTFRWTKSFTLILQALDMYNTSYPDAERLIEETSYSGVILPSPEWKTLDHIGRNARITYRVRVQCAVTYYNTTCTTFCRPRDDQFGHYACGSEGQKLCLNGWQGVNCEEAICKAGCDPVHGKCDRPGECECRPGWRGPLCNECMVYPGCKHGSCNGSAWKCVCDTNWGGILCDQDLNFCGTHEPCKHGGTCENTAPDKYRCTCAEGLSGEQCEIVEHPCATRPCRNGGTCTLKTSNRTQAQVYRTSHGRSNMGRPVRRSSSMRSLDHLRPEGQALNGSSSSGLVSLGSLQLQQQLAPDFTCDCAAGWTGPTCEINIDECAGGPCEHGGTCIDLIGGFRCECPPEWHGDVCQVDVNECEAPHSAGIAANALLTTTATAIIGSNLSSTALLAALTSAVASTSLAIGPCINAKECRNQPGSFACICKEGWGGVTCAENLDDCVGQCRNGATCIDLVNDYRCACASGFTGRDCETDIDECATSPCRNGGECVDMVGKFNCICPLGYSGSLCEEAKENCTPSPCLEGHCLNTPEGYYCHCPPDRAGKHCEQLRPLCSQPPCNEGCFANVSLATSATTTTTTTTTATTTRKMAKPSGLPCSGHGSCEMSDVGTFCKCHVGHTGTFCEHNLNECSPNPCRNGGICLDGDGDFTCECMSGWTGKRCSERATGCYAGQCQNGGTCMPGAPDKALQPHCRCAPGWTGLFCAEAIDQCRGQPCHNGGTCESGAGWFRCVCAQGFSGPDCRINVNECSPQPCQGGATCIDGIGGYSCICPPGRHGLRCEILLSDPKSACQNASNTISPYTALNRSQNWLDIALTGRTEDDENCNACVCENGTSRCTNLWCGLPNCYKVDPLSKSSNLSGVCKQHEVCVPALSETCLSSPCNVRGDCRALEPSRRVAPPRLPAKSSCWPNQAVVNENCARLTILLALERVGKGASVEGLCSLVRVLLAAQLIKKPASTFGQDPGMLMVLCDLKTGTNDTVELTVSSSKLNDPQLPVAVGLLGELLSSRQLNGIQRRKELELQHAKLAALTSIVEVKLETARVADGSGHSLLIGVLCGVFIVLVGFSVFISLYWKQRLAYRTSSGMNLTPSLDALRHEEEKSNNLQNEENLRRYTNPLKGSTSSLRAATGMELSLNPAPELAASAASSSALHRSQPLFPPCDFERELDSSTGLKQAHKRSSQILLHKTQNSDMRKNTVGSLDSPRKDFGKRSINCKSMPPSSGDEGSDVLATTVMV
notes: The tomato tag is an internal insertion in the intracellular domain; also called Ser+Tomato; Ser Bsp tom; not shown: fluorescent tomato tag (Shaner et al., 2004), INSERTED within the intracellular domain at the Bsp EI site of the Ser cDN
B2: wild type Drosophila Serrate (Ser), UAS-Ser transgene (ligand)
chain: B1 chain
notes: also called wild type Ser

Key:
[1] = target: T1, EGFP labeled Notch (Drosophila Notch stably expressed on S2 cells) (Drosophila, UniProt P07207 53-2703); assay: S2 cell aggregation; Sertom DNA transfected into Notch-EGFP cells (cis), competitor of Sertom cells (trans)
T1 construct: whole, on cells; how EGFP is joined to Notch is not described; also called Notch+EGFP; N+EGFP; not shown: EGFP label
Protocol: Stable lines of EGFP-labeled Notch cells were added to stable lines of tomato tagged Ser-expressing cells, allowed to mix for 24 hours at room temperature and were assayed for the formation of interacting cellular aggregates (Fehon et al., 1990, Cell 3:523-534). The Notch expressing cells were transiently transfected with tomato-tagged Ser DNA at concentrations ranging between 0.0 μg and 2.0 μg prior to mixing with Ser expressing cells to induce cis-inhibition by co-expressed Ser with Notch. When performed with wild type Ser DNA (A of this figure), effective inhibition of aggregation occurs in a dose dependent manner when the Ser expressing cells (Ser labeled columns) are mixed with the transfected Notch cells. When Ser expressing cells are not mixed with the transfected Notch cells (S2R+), self-aggregate formation is minimal.
S2 cells stably expressing tomato-tagged Ser (Sertom) were mixed with S2 cells stably expressing EGFP labeled Notch and allowed to aggregate with one another to determine baseline levels of Notch-Ser interactions (FIG. 6). Subsequent experiments transiently transfected the stable Notch EGFP line with either Sertom (wild type), SerDel6tom or SerDel3tom transgenes at varying concentrations to promote cis-inhibition within the Notch-expressing cells. […]

[2] = target: T2, endogenous Drosophila Notch (wing imaginal disc) (Drosophila, UniProt P07207 53-2703); assay: summing-up sentence; inferred from trans-activation in wing discs and aggregation assays
T2 construct: whole, on cells; also called Notch receptor
Protocol: To define potential inhibitory domains in the extracellular domain of the Notch ligands, a systematic deletion analysis of an extracellular region of the Drosophila Notch ligand Ser was performed. Ser has 14 ELRs in its extracellular domain (FIG. 4) and has been the ligand best explored for its inhibitory properties (Klein et al., 1997, Dev. Biol. 1:123-134; Li and Baker, 2004, BMC Dev. Biol. 5). […] Using the Gal4ptc promoter, the influence of ectopic Ser expression on Notch activity was measured by examining how it affects the expression of CUT, a transcriptional target of Notch signals and is a classic indicator of Notch activity in the dorsal/ventral boundary and ventral region of the wing disc (Doherty et al., 1996, Genes Dev. 4:421-434).
Ser constructs were expressed in the third instar imaginal wing disc via the ptc promoter using the Gal4 system (Brand and Perrimon, 1993, Development 2:401-415). Notch activity was assessed by examination of CUT expression induced in response to Notch activity (Neumann and Cohen, 1996, Development 11:3477-3485). […]

T1 sequence (P07207 53-2703): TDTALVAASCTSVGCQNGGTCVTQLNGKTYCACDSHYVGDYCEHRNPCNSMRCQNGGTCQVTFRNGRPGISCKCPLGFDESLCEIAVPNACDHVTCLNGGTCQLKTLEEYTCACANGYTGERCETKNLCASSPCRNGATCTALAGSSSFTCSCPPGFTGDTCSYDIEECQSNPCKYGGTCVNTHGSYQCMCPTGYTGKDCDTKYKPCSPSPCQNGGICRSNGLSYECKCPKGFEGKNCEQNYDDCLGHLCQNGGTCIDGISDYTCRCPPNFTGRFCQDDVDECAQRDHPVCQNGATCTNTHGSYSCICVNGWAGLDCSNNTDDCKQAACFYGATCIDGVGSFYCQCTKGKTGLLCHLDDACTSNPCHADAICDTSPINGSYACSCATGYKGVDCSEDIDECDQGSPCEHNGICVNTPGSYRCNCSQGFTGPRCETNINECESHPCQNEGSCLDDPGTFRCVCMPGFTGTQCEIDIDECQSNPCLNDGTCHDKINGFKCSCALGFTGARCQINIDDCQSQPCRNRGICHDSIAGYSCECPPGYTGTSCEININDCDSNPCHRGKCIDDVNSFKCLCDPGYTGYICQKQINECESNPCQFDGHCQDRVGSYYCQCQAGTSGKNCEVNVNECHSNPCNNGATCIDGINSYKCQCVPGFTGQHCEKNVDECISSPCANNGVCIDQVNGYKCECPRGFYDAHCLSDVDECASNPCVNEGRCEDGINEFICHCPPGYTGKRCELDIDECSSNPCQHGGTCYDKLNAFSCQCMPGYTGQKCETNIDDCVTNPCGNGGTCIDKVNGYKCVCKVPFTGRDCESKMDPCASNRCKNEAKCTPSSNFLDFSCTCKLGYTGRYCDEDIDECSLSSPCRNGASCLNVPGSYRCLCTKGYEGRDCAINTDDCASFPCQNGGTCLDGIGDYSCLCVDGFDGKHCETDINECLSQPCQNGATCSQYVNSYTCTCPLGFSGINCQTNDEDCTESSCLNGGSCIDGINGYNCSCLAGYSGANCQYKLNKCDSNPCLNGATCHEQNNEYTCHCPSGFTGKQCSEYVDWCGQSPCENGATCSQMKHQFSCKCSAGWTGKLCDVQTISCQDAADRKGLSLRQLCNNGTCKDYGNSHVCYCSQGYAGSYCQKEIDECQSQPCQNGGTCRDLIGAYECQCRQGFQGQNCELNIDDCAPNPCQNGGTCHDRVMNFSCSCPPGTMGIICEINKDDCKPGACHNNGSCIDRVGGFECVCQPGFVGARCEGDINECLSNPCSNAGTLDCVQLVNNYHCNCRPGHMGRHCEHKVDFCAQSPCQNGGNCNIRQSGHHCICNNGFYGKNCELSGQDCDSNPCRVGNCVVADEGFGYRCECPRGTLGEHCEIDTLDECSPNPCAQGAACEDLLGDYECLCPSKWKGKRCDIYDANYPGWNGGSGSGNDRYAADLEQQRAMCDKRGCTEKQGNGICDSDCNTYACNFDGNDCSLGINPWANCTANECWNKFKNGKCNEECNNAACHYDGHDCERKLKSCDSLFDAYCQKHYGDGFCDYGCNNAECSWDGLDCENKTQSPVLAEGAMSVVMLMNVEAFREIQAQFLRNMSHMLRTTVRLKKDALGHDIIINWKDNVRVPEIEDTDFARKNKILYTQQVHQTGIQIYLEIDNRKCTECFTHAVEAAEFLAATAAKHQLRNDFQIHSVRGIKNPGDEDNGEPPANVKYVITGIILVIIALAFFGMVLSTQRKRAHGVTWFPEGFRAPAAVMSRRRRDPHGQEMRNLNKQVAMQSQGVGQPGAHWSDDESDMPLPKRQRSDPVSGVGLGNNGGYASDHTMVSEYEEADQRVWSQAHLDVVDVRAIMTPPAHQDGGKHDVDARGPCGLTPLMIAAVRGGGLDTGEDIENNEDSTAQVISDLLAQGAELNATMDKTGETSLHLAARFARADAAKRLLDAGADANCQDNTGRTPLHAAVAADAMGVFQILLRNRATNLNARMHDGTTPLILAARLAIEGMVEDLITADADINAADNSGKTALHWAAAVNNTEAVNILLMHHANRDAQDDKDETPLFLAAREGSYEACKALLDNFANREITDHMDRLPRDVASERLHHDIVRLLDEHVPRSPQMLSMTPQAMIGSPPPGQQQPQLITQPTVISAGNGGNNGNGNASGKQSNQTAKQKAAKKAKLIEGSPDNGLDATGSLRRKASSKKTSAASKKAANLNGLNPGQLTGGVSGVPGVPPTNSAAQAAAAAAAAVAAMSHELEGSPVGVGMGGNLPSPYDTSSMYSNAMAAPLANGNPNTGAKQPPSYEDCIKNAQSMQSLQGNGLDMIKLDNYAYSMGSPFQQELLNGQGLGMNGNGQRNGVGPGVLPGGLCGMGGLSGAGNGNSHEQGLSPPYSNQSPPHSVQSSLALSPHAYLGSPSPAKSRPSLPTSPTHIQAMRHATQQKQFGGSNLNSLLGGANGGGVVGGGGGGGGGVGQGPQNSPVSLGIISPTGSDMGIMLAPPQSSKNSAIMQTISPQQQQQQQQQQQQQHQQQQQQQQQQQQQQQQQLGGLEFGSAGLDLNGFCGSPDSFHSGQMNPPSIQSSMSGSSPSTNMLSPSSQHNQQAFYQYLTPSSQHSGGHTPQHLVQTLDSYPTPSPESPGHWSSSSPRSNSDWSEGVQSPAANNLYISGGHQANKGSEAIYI
T2 sequence (P07207 53-2703): as above

Row | Binder | binding result [1] | binding result [2]
1 | B1 | binds | –
2 | B2 | – | binds
